Legend:
[1] = Thermal stability by differential scanning calorimetry; type: physicochemical; details: for First Scan Tm / Second Scan Tm: cysteine-NEM conjugates; for First Scan Tm: DSC 25-100° C., 1° C. per minute; for Second Scan Tm: second identical scan; for Thermal Stability (Tm, C.): c-Met-binding FN3 domains, DSC in PBS
Protocol: The thermal stability of cysteine-NEM conjugates was assessed by differential scanning calorimetry (DSC). The only the conjugates tested were those determined to express at high levels, conjugate efficiently, and retain EGFR binding. Additionally, cysteine variants within the BC and FG loops were excluded. Stability data was generated by heating a 400 μL aliquot of the variant from 25° C. to 100° C. at a scan rate of 1° C. per minute in a VP-DSC instrument (MicroCal). A second identical scan was completed on the sample in order to assess the reversibility of thermal folding/unfolding. Data was fitted to a 2-state unfolding model in order to calculate the melting temperature (Table 10).
Thermal Stability of c-Met-Binding FN3 Domains Differential scanning calorimetry in PBS was used to assess the stability of each FN3 domain.

[2] = Analytical size exclusion chromatography (aggregation state, percent monomer); type: physicochemical; details: NEM-conjugated cysteine variants; SEC, Abs280
Protocol: Size exclusion chromatography was used to determine the aggregation state of the FN3 domains binding EGFR. Aliquots (10 μL) of each purified FN3 domain were injected onto a Superdex 75 5/150 column (GE Healthcare) at a flow rate of 0.3 mL/min in a mobile phase of PBS pH 7.4. Elution from the column was monitored by absorbance at 280 nm.
The percent monomer for each protein was determined by integrating the Abs280 signal and comparing the peak in the monomer region (5.5-6 minutes) to the peaks in the oligomer region (4-5.3 minutes).

H1573 cells = test: Cytotoxicity assay of cytotoxin conjugates in H1573 cells; type: cell-based, human; details: MMAF conjugates; for IC50: Cell TiterGlo at 70 hours, read-out: IC50 (cell killing)
Protocol: Cell killing was assessed by measuring viability of the EGFR-overexpressing human tumor cell line H1573 following exposure to the cysteine variant-cytotoxin conjugates. […] Cells were allowed to attach overnight at 37° C. in a humidified 5% CO2 atmosphere. Medium was aspirated from 96-well plate and cells were treated with 50 uL of fresh media and 50 uL of 2× inhibitor made up in fresh media. Cell viability was determined by an endpoint assay with Cell TiterGlo (Promega) at 70 hours. IC50 values were determined by fitting data to the equation for a sigmoidal dose response with variable slope using GraphPad Prism 5 (GraphPad Software).
Conjugates consisting of ECB147 cysteine variants, 83v2-cys, or Tencon-cys linked to a cytotoxic tubulin inhibitor from the auristatin family (FIG. 2) were tested for target-dependent cytotoxicity in cancer cells. The inhibitor was linked to the cysteine-containing protein via a non-cleavable PEG4 linker or an enzyme-cleavable valine-citrulline or valine-lysine linker.

B1: N6C (protein)
chain: LPAPKCLVVSEVTEDSARLSWDDPWAFYESFLIQYQESEKVGEAIVLTVPGSERSYDLTGLKPGTEYTVSIYGVHNVYKDTNMRGLPLSAIFTT
[1]
  First Scan Tm: 71 °C
  Second Scan Tm: 70 °C
[2]
  Percent monomer: 94%
H1573 cells
  IC50 relative to parent conjugate: over two times more potent than the parent
  IC50: 0.16 nM

B2: T93C (protein)
chain 1: MLPAPKNLVVSEVTEDSARLSWDDPWAFYESFLIQYQESEKVGEAIVLTVPGSERSYDLTGLKPGTEYTVSIYGVHNVYKDTNMRGLPLSAIFCT
chain 2: LPAPKNLVVSEVTEDSARLSWDDPWAFYESFLIQYQESEKVGEAIVLTVPGSERSYDLTGLKPGTEYTVSIYGVHNVYKDTNMRGLPLSAIFCT
modifications: EGFR binding FN3 domain; EGFR-binding FN3 domain
[1]
  First Scan Tm: 69 °C
  Second Scan Tm: 69 °C
[2]
  Percent monomer: 100%
H1573 cells
  IC50 relative to parent conjugate: over two times more potent than the parent
  IC50: 0.2 nM

B3: S10C (protein)
chain 1: MLPAPKNLVVCEVTEDSARLSWDDPWAFYESFLIQYQESEKVGEAIVLTVPGSERSYDLTGLKPGTEYTVSIYGVHNVYKDTNMRGLPLSAIFTT
chain 2: LPAPKNLVVCEVTEDSARLSWDDPWAFYESFLIQYQESEKVGEAIVLTVPGSERSYDLTGLKPGTEYTVSIYGVHNVYKDTNMRGLPLSAIFTT
modifications: EGFR binding FN3 domain; EGFR-binding FN3 domain
[1]
  First Scan Tm: 68 °C
  Second Scan Tm: 68 °C
[2]
  Percent monomer: 80%
H1573 cells
  IC50: 0.43 nM

B4: V8C (protein)
chain 1: MLPAPKNLCVSEVTEDSARLSWDDPWAFYESFLIQYQESEKVGEAIVLTVPGSERSYDLTGLKPGTEYTVSIYGVHNVYKDTNMRGLPLSAIFTT
chain 2: LPAPKNLCVSEVTEDSARLSWDDPWAFYESFLIQYQESEKVGEAIVLTVPGSERSYDLTGLKPGTEYTVSIYGVHNVYKDTNMRGLPLSAIFTT
modifications: EGFR binding FN3 domain; EGFR-binding FN3 domain
[1]
  First Scan Tm: 69 °C
  Second Scan Tm: 69 °C
[2]
  Percent monomer: 91%
H1573 cells
  IC50: 0.35 nM

B5: P114AR7P92-G8: c-Met-binding FN3 domain, SEQ ID NO: 36 (protein)
chain: LPAPKNLVVSRVTEDSARLSWTAPDAAFDSFVIRYFEFLGSGEAIVLTVPGSERSYDLTGLKPGTEYVVQILGVKGGYISIPLSAIFTT
modifications: c-Met binding FN3 domain
[1]
  Thermal Stability (Tm, C.): 90.9 C.

B6: P114AR7P94-A3: c-Met-binding FN3 domain, SEQ ID NO: 41 (protein)
chain: LPAPKNLVVSRVTEDSARLSWTAPDAAFDSFWIRYFEFLGSGEAIVLTVPGSERSYDLTGLKPGTEYVVNIMGVKGGKISPPLSAIFTT
modifications: c-Met binding FN3 domain
[1]
  Thermal Stability (Tm, C.): 86.2 C.

B7: P114AR7P95-G7: c-Met-binding FN3 domain, SEQ ID NO: 48 (protein)
chain: LPAPKNLVVSRVTEDSARLSWTAPDAAFDSFWIRYFELLSTGEAIVLTVPGSERSYDLTGLKPGTEYVVNIMGVKGGSISPPLSAIFTT
modifications: c-Met binding FN3 domain
[1]
  Thermal Stability (Tm, C.): 87.2 C.

B8: P114AR7P94-E5: c-Met-binding FN3 domain, SEQ ID NO: 42 (protein)
chain: LPAPKNLVVSRVTEDSARLSWTAPDAAFDSFWIRYFEFLGSGEAIVLTVPGSERSYDLTGLKPGTEYAVNIMGVKGGRVSVPLSAIFTT
modifications: c-Met binding FN3 domain
[1]
  Thermal Stability (Tm, C.): 80 C.

B9: P114AR7P93-G8: c-Met-binding FN3 domain, SEQ ID NO: 39 (protein)
chain: LPAPKNLVVSRVTEDSARLSWTAPDAAFDSFWIRYFEFLGSGEAIVLTVPGSERSYDLTDLKPGTEYGVTINGVKGGRVSTPLSAIFTT
modifications: c-Met binding FN3 domain
[1]
  Thermal Stability (Tm, C.): 76.8 C.

B10: P114AR7P93-H9: c-Met-binding FN3 domain, SEQ ID NO: 40 (protein)
chain: LPAPKNLVVSRVTEDSARLSWTAPDAAFDSFWIRYFEFLGSGEAIVLTVPGSERSYDLTGLKPGTEYVVQIIGVKGGHISLPLSAIFTT
modifications: c-Met binding FN3 domain
[1]
  Thermal Stability (Tm, C.): 88.2 C.

B11: P114AR7P95-H8: c-Met-binding FN3 domain, SEQ ID NO: 49 (protein)
chain: LPAPKNLVVSRVTEDSARLSWTAPDAAFDSFWIRYFEFVSKGEAIVLTVPGSERSYDLTGLKPGTEYVVNIMGVKGGSISPPLSAIFTT
modifications: c-Met binding FN3 domain
[1]
  Thermal Stability (Tm, C.): 83 C.

B12: P114AR7P92-F6: c-Met-binding FN3 domain, SEQ ID NO: 35 (protein)
chain: LPAPKNLVVSRVTEDSARLSWTAPDAAFDSFWIRYFEFLGSGEAIVLTVPGSERSYDLTGLKPGTEYVVNILGVKGGGLSVPLSAIFTT
modifications: c-Met binding FN3 domain
[1]
  Thermal Stability (Tm, C.): 76.8 C.

B13: P114AR5P74-A5: c-Met-binding FN3 domain, SEQ ID NO: 32 (protein)
chain: LPAPKNLVVSRVTEDSARLSWTAPDAAFDSFWIRYDEVVVGGEAIVLTVPGSERSYDLTGLKPGTEYYVNILGVKGGSISVPLSAIFTT
modifications: c-Met binding FN3 domain
[1]
  Thermal Stability (Tm, C.): 74.1 C.

B14: P114AR7P95-F10: c-Met-binding FN3 domain, SEQ ID NO: 47 (protein)
chain: LPAPKNLVVSRVTEDSARLSWTAPDAAFDSFWIRYFEFTTAGEAIVLTVPGSERSYDLTGLKPGTEYVVNIMGVKGGSISPPLSAIFTT
modifications: c-Met binding FN3 domain
[1]
  Thermal Stability (Tm, C.): 85.2 C.

B15: P114AR7P92-H5: c-Met-binding FN3 domain, SEQ ID NO: 37 (protein)
chain: LPAPKNLVVSRVTEDSARLSWTAPDAAFDSFWIRYLEFLLGGEAIVLTVPGSERSYDLTGLKPGTEYVVQIMGVKGGTVSPPLSAIFTT
modifications: c-Met binding FN3 domain
[1]
  Thermal Stability (Tm, C.): 87 C.

B16: P114AR7P95-D4: c-Met-binding FN3 domain, SEQ ID NO: 45 (protein)
chain: LPAPKNLVVSRVTEDSARLSWTAPDAAFDSFWIRYFEFLGSGEAIVLTVPGSERSYDLTGLKPGTEYVVQILGVKGGYISIPLSAIFTT
modifications: c-Met binding FN3 domain
[1]
  Thermal Stability (Tm, C.): 85.3 C.

B17: E53C (protein)
chain: MLPAPKNLVVSEVTEDSARLSWDDPWAFYESFLIQYQESEKVGEAIVLTVPGSCRSYDLTGLKPGTEYTVSIYGVHNVYKDTNMRGLPLSAIFTT
modifications: EGFR binding FN3 domain
H1573 cells
  IC50 relative to parent conjugate: over two times more potent than the parent
